How the values were obtained:
[1] = target: T1, CD276 protein on tumor target cells (NCI-H292, SK-OV-3) (human, UniProt Q5ZPR3 29-534); assay: cell-based or functional assay
T1 sequence (looked up): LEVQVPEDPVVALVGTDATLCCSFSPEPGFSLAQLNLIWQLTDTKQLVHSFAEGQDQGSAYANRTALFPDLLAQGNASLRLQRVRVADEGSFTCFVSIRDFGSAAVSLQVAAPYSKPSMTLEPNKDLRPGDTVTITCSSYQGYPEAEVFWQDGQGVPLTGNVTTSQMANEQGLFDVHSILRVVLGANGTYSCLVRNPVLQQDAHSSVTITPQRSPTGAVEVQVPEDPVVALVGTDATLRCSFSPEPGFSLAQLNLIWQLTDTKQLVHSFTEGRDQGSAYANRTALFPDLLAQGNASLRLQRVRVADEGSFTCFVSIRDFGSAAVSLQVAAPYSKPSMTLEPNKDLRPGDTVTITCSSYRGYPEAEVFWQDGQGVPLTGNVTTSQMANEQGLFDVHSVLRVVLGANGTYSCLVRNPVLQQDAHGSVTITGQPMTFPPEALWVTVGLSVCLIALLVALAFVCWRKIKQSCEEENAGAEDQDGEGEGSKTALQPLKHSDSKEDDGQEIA

[2] = target: T1, CD276 protein on tumor target cells …; assay: flow cytometry on NCI-H292 cells, IgG-Fc-PE second antibody
[3] = target: T1, CD276 protein on tumor target cells …; assay: flow cytometry on NCI-H292 cell line (Fig. 3)

B1: CD276(Hu012-7)BiTE (bispecific antibody)
chain: DIVMTQSPSSLSTSIGDRVTITCRASQGISNFLAWFQQKPGKAPKSLIYAASRLQSGVPSKFSGSGSGTNFTLTISSLQPEDFATYYCQQYDSYPLTFGGGTKVEIKGGGGSGGGGSGGGGSEVQLVESGGGVVQPGRSLTLSCAASGFTFNGYSMHWVRQAPGKGLEWVAVMSSDGGNKYYADSVKGRFTISRDNSKNTLYLQMNGLRPEDTAVYYCARAVSSGWSLPFDFWGHGTLVTVSSGGGGSQVQLVQSGAEVKKPGASVKVSCKASGYTFTRYTMHWVRQAPGQGLEWMGYINPSRGYTNYNQKFKDRVTITADKSTSTAYMELSSLRSEDTAVYYCARYYDDHYCLDYWGQGTTVTVSSGGGGSGGGGSGGGGSGSEIVLTQSPATLSLSPGERATLSCSASSSVSYMNWYQQKPGKAPKRLIYDTSKLASGVPSRFSGSGSGTDFTLTINSLEAEDAATYYCQQWSSNPFTFGQGTKVEIKR
fold increase in killing the NCI-H292 tumor cell line against control BiTE [1]: 1.2 fold | fold increase in killing the SK-OV3 tumor cell line against control BiTE [1]: 2.1 fold

B2: CD276(Hu012-8)BiTE (bispecific antibody)
chain: NIQMTQSPSSLSASVGDRVTITCRASQTISRYLNWYQQKPGKAPKLLIYAASSLQSGVPSRFSGSGSGADFTLTINTLQPEDFATYYCQQSYRTPQTFGQGTKVEIKGGGGSGGGGSGGGGSQVQLVQSGAEVKKPGASVRVSCKGSGYTFTDHHMYWVRQAPGQGLEWMGRINPNTGVTNYAQKFQGRVSMTRDTSINTVYLELRSLKSDDAAVYYCGRDQVVMVPGVPLDLGMDVWGQGTTVTVSSGGGGSQVQLVQSGAEVKKPGASVKVSCKASGYTFTRYTMHWVRQAPGQGLEWMGYINPSRGYTNYNQKFKDRVTITADKSTSTAYMELSSLRSEDTAVYYCARYYDDHYCLDYWGQGTTVTVSSGGGGSGGGGSGGGGSGSEIVLTQSPATLSLSPGERATLSCSASSSVSYMNWYQQKPGKAPKRLIYDTSKLASGVPSRFSGSGSGTDFTLTINSLEAEDAATYYCQQWSSNPFTFGQGTKVEIKR
fold increase in killing the NCI-H292 tumor cell line against control BiTE [1]: 1.2 fold | fold increase in killing the SK-OV3 tumor cell line against control BiTE [1]: 2 fold

B3: Hu012-7-4-1BB-CD3ζ chimeric antigen receptor on lentivirus-transduced T cells (other)
chain: GDYKDDDDKGSEVQLVESGGGVVQPGRSLTLSCAASGFTFNGYSMHWVRQAPGKGLEWVAVMSSDGGNKYYADSVKGRFTISRDNSKNTLYLQMNGLRPEDTAVYYCARAVSSGWSLPFDFWGHGTLVTVSSGGGGSGGGGSGGGGSDIVMTQSPSSLSTSIGDRVTITCRASQGISNFLAWFQQKPGKAPKSLIYAASRLQSGVPSKFSGSGSGTNFTLTISSLQPEDFATYYCQQYDSYPLTFGGGTKVEIKTRTTTPAPRPPTPAPTIASQPLSLRPEACRPAAGGAVHTRGLDFACDIYIWAPLAGTCGVLLLSLVITLYCKRGRKKLLYIFKQPFMRPVQTTQEEDGCSCRFPEEEEGGCELRVKFSRSADAPAYKQGQNQLYNELNLGRREEYDVLDKRRGRDPEMGGKPRRKNPQEGLYNELQKDKMAEAYSEIGMKGERRRGKGHDGLYQGLSTATKDTYDALHMQALPPR
killing efficiency on SKOV3 cells, effector to target ratio 1:1 [1]: ~30% | killing efficiency on SKOV3 cells, effector to target ratio 2:1 [1]: > 60%

B4: Hu012-13 (antibody, IgG1, V domains shown)
VH: EVQLVQSGAEVKKPGASVKVSCKASGYTFTSYGISWVRQAPGQGLEWMGWISAYNGNTNYAQKLQGRVTMTTDTSTSTAYMELRSLRSDDTAVYYCARAPYYGGYDYWGQGTMVTVSS
VL: ETTLTQSPGTLSLSPGDRATLSCRASQSVRSSYLAWYQQKPGQAPRLVIYGASNRAAGIPDRFSGSGSGTDFTLTISGLEPEDFAVYYCQEYGYSLPNTFGQGTKLEIK
notes: Full-length IgG1 (AbVec-hIgG1, AbVec-hIgKappa); also called candidate antibody Hu012-13
binding result [2]: binds

B5: Hu012-14 (antibody, IgG1, V domains shown)
VH: EVQLVETGGGLVQPGGSLRLSCAASGFTFSSYGMTWVRQPPGKGLEWVSHISGSGTNTYYADSVKGRFTISRDNSKNTLYLQMNNLGAEDTAVYYCAKLKWGHSGYGDYWGQGTTVTVSS
VL: EIVLTQSPATLSLSPGERATLSCRASQTISRYLAWYQQKPGQAPRLLIYDASNRATGIPARFSGSGSDTDFTLTISSIEPEDFAVYYCQERSNWPQVTFGPGTKLEIK
notes: Full-length IgG1 (AbVec-hIgG1, AbVec-hIgKappa); also called candidate antibody Hu012-14
binding result [2]: binds

B6: Hu012-21 (antibody, IgG1, V domains shown)
VH: EVQLVQSGGGVVQPGRSLRLSCAASGFTFSSYGMHWVRQAPGKGLEWVAVISYDGSNKYYADSVKGRFTISRDNSKDTLYLQMNSLRAEDTAVYYCAKDKLMGWHNYGMDVWGQGTTVTVSS
VL: AIQLTQSPSSLSASVGDRVTITCRASQSINSYLNWYQQKPGKAPKVLIYAASNLQSGVPSRFSGSGSGTDFTLTISSLQPEDFATYYCQQSYSTPPTFGQGTKLEIK
notes: Full-length IgG1 (AbVec-hIgG1, AbVec-hIgKappa); also called candidate antibody Hu012-21
binding result [2]: binds

B7: Hu012-27 (antibody, IgG1, V domains shown)
VH: QVQLVQSGGGVVQPGRSLRLSCAASGFTFSSYAMHWVRQAPGKGLEWVAVISYDGSNKYYADSVKGRFTISRDNSKNTLYLQMNSLRAEDTTVYYCARDRRYYSSMDVWGQGTTVTVSS
VL: QTVVTQEPSFSVSPGGTITLTCGLSSGSVSTSYYPSWYQQTPGQAPRTLIYNTNTRSSGVPDRFSGSILGNKAALTITGAQADDESHYYCALHMDSGSWVFGGGTQLTVL
notes: Full-length IgG1 (AbVec-hIgG1, AbVec-hIgKappa); also called candidate antibody Hu012-27
binding result [2]: binds

B8: Hu012-29 (antibody, V domains shown)
VH: EVQLVESGGGLVQPGGSLRLSCAASRNIFRFYTMGWYRQAPEKQRDLVARITSDGTTNYADSVKGRFTISRDNAKNTVYLQMNSLKPEDTAVYYCNTDLPLNTYWAQGTLVTVSS
VL: DIQMTQSPSSLSASVGDRVTITCRASQSISSSLNWYQHKPGKAPKLLIYSASILQSGVPSRFSGSGSGTDYTLTISSLQPEDFATYSCQQSYTTPYTFGLGTKLEIK
notes: Full-length IgG1 (AbVec-hIgG1, AbVec-hIgKappa); also called candidate antibody Hu012-29
binding result [2]: binds

B9: Hu012-1 (antibody, V domains shown)
VH: QVTLKESGGGLVQPGGSLRLSCAASGSIFNMYAMGWYRQAPGKQRELVASITSGGSTHYADSVKGRFTISRDNAKNTMYLQMNSLKPEDTAVYYCRQNDGMDYWGKGTLVTVSS
VL: QAGLTQPPSVSVAPGKTARITCGGNNIGSKSVHWYQQKPGQAPVVVIYDDSDRPSGIPERFSGSNSGNTATLTISRVEAGDEADFYCQVWDSSSDRYVFGTGTKLTVL
notes: Full-length IgG1 (AbVec-hIgG1, GenBank FJ475055.1; AbVec-hIgKappa, GenBank FJ475056.1); also called candidate antibody Hu012-1
positive rate [2]: ~100%

B10: Hu012-8 (antibody, IgG1, V domains shown)
VH: QVQLVQSGAEVKKPGASVRVSCKGSGYTFTDHHMYWVRQAPGQGLEWMGRINPNTGVTNYAQKFQGRVSMTRDTSINTVYLELRSLKSDDAAVYYCGRDQVVMVPGVPLDLGMDVWGQGTTVTVSS
VL: NIQMTQSPSSLSASVGDRVTITCRASQTISRYLNWYQQKPGKAPKLLIYAASSLQSGVPSRFSGSGSGADFTLTINTLQPEDFATYYCQQSYRTPQTFGQGTKVEIK
notes: Full-length IgG1; also called candidate antibody Hu012-8
positive rate [2]: ~100%

B11: Hu012-24 (antibody, IgG1, V domains shown)
VH: EVQLVQSGGGLVKPGGSLRLSCAASGFTFSRHSMNWVRQAPGKGLEWVSSISSNDEHIIYADSVKGRFTISRDNSKNTLYLEMNSLRAEDTAVYYCARASRYGGSYYGLDYWGQGTLVTVSS
VL: QTVVTQEPSFSVSPGGTVTLTCGLTSGSVSTTYFPSWYQQTPGQPPRRLIYNTNTRSSGVPDRFSGSIVGIKAALTITGAQAEDESDYYCALYLGSGIVEFGGGTKLTVL
notes: Full-length IgG1 (AbVec-hIgG1, AbVec-hIgKappa); also called candidate antibody Hu012-24
positive rate [2]: ~100%

B12: Hu012-3 (antibody, IgG1, V domains shown)
VH: QVQLVQSGAEVKKPGESLRISCKGSGYSFTSYWISWVRQMPGKGLEWMGRIDPSDSYTNYSPSFQGHVTISADKSISTAYLQWSSLKASDTAMYYCARHDASGGGPSDYWGQGTLVTVSS
VL: QSVLTQPPSVSAAPGQRVTISCSGSSSNIGDHYVSWYQQLPGTAPKLLIYDNNKRPSGIPDRFSGSKSGTSATLGITGLQTGDEADYYCGTWDSSLSVPNWVFGGGTKVTVL
notes: Full-length IgG1 (AbVec-hIgG1, AbVec-hIgKappa); also called candidate antibody Hu012-3
binding result [3]: binds

B13: Hu012-6 (antibody, IgG1, V domains shown)
VH: QMQLVQSGGGLVQPGGSLRLSCAASGFTFSSYWMSWVRQAPGKGLEWVANIKQDGSEKYYVDSVKGRFTISRDNAKNSLYLQMNSLRAEDTAVYYCARSPHYDFWRRDYYYGMDVWGQGTLVTVSS
VL: QSVLTQPPSVSATPGQTVTISCSGSTSNIATNYVSWYQHLPGSAPKLLIYDNNKRPSGIPDRFSGSKSGTSATLDIIGLQTGDEADYYCGVWDPSLTTYVFGTGTQLTAL
notes: Full-length IgG1 (AbVec-hIgG1, AbVec-hIgKappa); also called candidate antibody Hu012-6
binding result [3]: binds
